The values that follow come from paper PMC11323569 (mBio, 2024).

The target of series [1] is PrgKEC, extracytoplasmic region of PrgK (residues 273-871) (Enterococcus faecalis (plasmid pCF10)) (UniProt Q5G3P4). In words: […], pH 5.0, 100 mM NaCl; […].
The series “non-reducing SDS-PAGE” deals with the molecule itself. In words: non-reducing SDS-PAGE.
Series [2] deals with the molecule itself. In words: […], pH 5.0, 100 mM NaCl; […].

In series [1], “PrgL_(32-208), extracellular domain of PrgL (domain or fragment)” displayed a stoichiometry N (PrgL32-208 per PrgKEC (1:1)) of 1.

B1: PrgK_(SLT-CHAP) (residues 530-871) (domain or fragment)
chain: LLGSADFSPGASVEKRAQAVYDYLSKKGYTKEGISAILGNFSVESGINPKRAEGDYLNPPVGAHGNSWDEPSWLSMGGPQIYGGRFPNILHRGLGLGQWTDTADGGRRHTLLLDYAKGKNKKWYDLQLQLDFIFDGDAPGSRTAADNVARSKVAATIPELTTYFLTVWEGNPGDKLGERIQAAQNWFTFFSRSGTPIGGSGSEVFAQYKEKMQPLPTDRETKAGQGWPGNAYAPGNCTWYVFNRFAQLGKSIHPTMGNANQWVHNYSQTPGATLESAPKKGDAVIFTNGVAGSSTQYGHVAYVEHVNSDGSFVISEMNVSGEYSMNWRVLKKEAGEYFMRLN
Take B1: the binding result in the series “non-reducing SDS-PAGE” is “binds”.

B2: PrgK_(CHAP) (residues 723-871) (domain or fragment)
chain: GTPIGGSGSEVFAQYKEKMQPLPTDRETKAGQGWPGNAYAPGNCTWYVFNRFAQLGKSIHPTMGNANQWVHNYSQTPGATLESAPKKGDAVIFTNGVAGSSTQYGHVAYVEHVNSDGSFVISEMNVSGEYSMNWRVLKKEAGEYFMRLN
notes: also called CHAP domain; source: E. coli BL21(DE3), purified (IMAC fractions)
As to B2, the binding result in the series “non-reducing SDS-PAGE” is “binds”.

B3: PrgKEC, extracytoplasmic region of PrgK (residues 273-871) (domain or fragment)
chain: ASSTQKPAIVQEEEDLTASWTYFTKLDAQHTDDNNLFYSNIDEVLFYMNYRYDDFKLLDMDSTGTKNFETILSELWTALNGKKPDYQLKTMQSLETDKKSSYFIEEEQAKHYQEIKKELGYQTLDDLLSFPVKTDALIVNKRYGYDKSKEKLTLYQGIDVLIEDNQPFHSPMNGQIVSVPDTETLVIEKEKVARLTIRGVNTLRLTKGMDVEEGTFLGNTKNSTVTFQYEKYKKETKDWFFVNPAFYFPRVTYTQTTLLGSADFSPGASVEKRAQAVYDYLSKKGYTKEGISAILGNFSVESGINPKRAEGDYLNPPVGAHGNSWDEPSWLSMGGPQIYGGRFPNILHRGLGLGQWTDTADGGRRHTLLLDYAKGKNKKWYDLQLQLDFIFDGDAPGSRTAADNVARSKVAATIPELTTYFLTVWEGNPGDKLGERIQAAQNWFTFFSRSGTPIGGSGSEVFAQYKEKMQPLPTDRETKAGQGWPGNAYAPGNCTWYVFNRFAQLGKSIHPTMGNANQWVHNYSQTPGATLESAPKKGDAVIFTNGVAGSSTQYGHVAYVEHVNSDGSFVISEMNVSGEYSMNWRVLKKEAGEYFMRLN
notes: also called PrgKEC wild type; extracellular domain of PrgK; source: E. coli BL21(DE3), purified (Ni-NTA, PreScission elution, Superdex-200 SEC)
A word on the stoichiometry N: it is a count of units in the complex or per binding partner. For B3, the “stoichiometry N” value in series [2] is 2 chains in the oligomer (dimer).
